From publication doi:10.1101/2024.06.06.597810 (bioRxiv, 2024) come the findings set out here.

This test addresses T1, SARS-CoV-2 spike stem helix peptide (residues 1146-1159), displayed on yeast (SARS-CoV-2).
T1 chain: DSFKEELDKYFKNH
Nature of the test: flow cytometry on cells. The settings on record: partners not purified. (In flow cytometry, cells or beads pass a laser one at a time.)

B1: S2P6 in single-chain variable fragment (scFv) format (scFv, V domains shown)
VH: EVQLVQSGAEVKKPGASVKVSCKASGYTFTSQYMHWVRQAPGQGLEWIGIINPSGVHTSYAQKFQGRVTLTRDTSTSTLYMELSSLRSEDTAVYYCARGSPKGAFDYWGQGTLVTVSS
VL: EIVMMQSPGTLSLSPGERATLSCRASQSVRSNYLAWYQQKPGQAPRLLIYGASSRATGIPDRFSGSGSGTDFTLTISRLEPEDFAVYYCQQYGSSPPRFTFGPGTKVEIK
notes: not shown: HA, C-terminal, kept
In the case of B1, the binding result is reported as “binds”.
